These results are taken from patent US6890526B2, “Methods and reagents for the treatment of multiple sclerosis” (Vanderbilt University, priority 1997, dated 2005).

For data set [1], the system named is MOMP gene of C. pneumoniae. Nature of the data set: PCR/Southern hybridization of CSF for the MOMP gene. Particulars: CSF PCR signal for the MOMP gene of C. pneumoniae after antibiotics; all patients PCR-positive before therapy. The procedure: To at least 300 μl of CSF sample, 200 μl of HBSS containing 0.25% trypsin and 1 mM EDTA at pH 7.2 was added to achieve a final concentration of 0.1% trypsin, and the sample vortexed and then incubated at 37° C. for 30 minutes. Following incubation, the sample was again vortexed, centrifuged for 45 minutes at 12,000×g in a microcentrifuge, and the pellet resuspended in 20 μl of lysis buffer (0.5% sodium dodecylsulfate (SDS), 1% NP40, 0.2 M NaCl, 10 μM DTT, 10 mM EDTA, 20 mM Tris-HCl at pH 7.5). To this was added 8 μl of proteinase K (20 μg/ml; Boehringer-Mannheim, Indianapolis, Ind.), after which the specimen was mixed and incubated overnight at 37° C. […]
PCR was carried out using the entire MOMP gene (1.2 kb) using Deep Vent polymerase in the manufacturer's buffer (New England Biolabs, Boston, Mass.) with no additional MgCl2. […] PCR reactions were analyzed by electrophoresis in 1% agarose gel for 45 minutes at 95 volts. For confirmation and enhanced sensitivity, the gels were further analyzed by Southern hybridization using a digoxigenin-labeled (DIG, Boehringer-Mannheim) MOMP gene probe from the TWAR strain of C. pneumoniae (ATCC VR-1310). […]
Nested PCR primers were chosen within the MOMP which are C. pneumoniae specific (located in variable domains 1 and 4) and yield a 727 bp band. […] PCR reactions were analyzed by electrophoresis in 1% agarose gel for 45 minutes at 95 volts. […]

In data set [2] the test system is MS patients. Nature of the data set: Treatment of MS patients with combinations of anti-chlamydial agents, case histories (Tables 8-10). Type of data set: in vivo, human. Particulars: patient; drug stopped, later phased back in. The source says:
The case histories for these patients are described in Table 9.

The subject of data set [3] is MS patients. Nature of the data set: Long-term combination therapy of 12 progressive MS patients, EDSS (Table 11). Type of data set: in vivo, human. Particulars: patient #12; azithromycin substituted.
Procedure: All 12 patients were positive by PCR for the MOMP gene of C. pneumoniae in the CSF. In 10 of 12 patients, the highest Expanded Disability Status Scale (EDSS; Kurtzke, Neurology 33:1444-1152, 1983) score reached was sustained for six months. […] The antibiotic regimen in eight of 12 patients was a combination of rifampin (300 mg twice daily), amoxicillin (500 mg twice daily) and probenecid (500 mg daily).
For the next data set, the system named is iNOS. Nature of the data set: Measurement of NO production (nitrite, Greiss reagent) in splenic macrophage culture supernatants. It counts as cell-based, mouse. The protocol:
(§1) Splenocytes were washed twice in PBS and plated in 24-well culture plates (Corning, Corning, N.Y.) in Dulbecco's minimal essential medium (DMEM; GIBCO BRL, Gaithersburg, Md.) containing 10% fetal calf serum (FCS; Hyclone, Logan, Utah) at 37° C. for two hours. Non-adherent cells were washed away by gentle rinsing in warm medium, and the macrophages were allowed to adhere to the plastic wells overnight. For optimal growth of macrophages, colony stimulating factor-1 (CSF-1) obtained from culture supernatants of LADMAC cells (American Type Tissue Collection (ATCC), Manassas, Va.) was added to reach a final concentration of 20%. After reaching confluence, cells were removed from the plastic wells by gentle trituration and examined for their purity by staining with fluoroscein-conjugated anti-CD11b and anti-I-As (clone 10-3.6) antibodies.
EB antigens were prepared from concentrated C. pneumoniae EBs by treating them with 25 mM DTT, 2% 2-mercaptoethanol, and 2% dodecylsulfate (SDS) for 5 minutes at 100° C. Treated EBs were sonicated, centrifuged (500×g for 30 minutes at room temperature) and the supernatant resuspended at 2 μg/ml protein in PBS pH 7.4. Concentrated C. pneumoniae EBs were obtained by growing C. pneumoniae (VR-1310; ATTC) in 25 ml flasks containing a confluent growth of HL cells (Human Lung Carcinoma Cells; Washington University Foundation, Seattle, Wash.) in DMEM and 10% FCS . Infection was facilitated by two washes with Hank's balanced salt solution (HBSS; GIBCO) followed by a 20 minute pre-incubation with diethylaminoethyl-dextran (30 μg/ml) (DEAE-Dextran; GIBCO) in HBSS. The infectious inoculum (ATCC VR-1310) was added to the flasks in 2 ml of serum-free media. The flasks were then centrifuged at 1,200×g for 1 hour at 4° C. To the spun flasks was added 2 ml of Iscoves medium (GIBCO) containing 4 μg/ml cyclohexamide, 20% FCS, 4 mM L-glutamine (Sigma), and 100 μg/ml gentamicin (Sigma). The flasks were then incubated at 35° C. for three days at which time the infected cells begin to lyse and release EBs. On day 4, the culture flasks were sonicated for 20 seconds, and the cell debris removed by centrifugation at 600×g for five minutes at room temperature. The supernatant containing the infectious EBs was centrifuged at 18,000×g for 30 minutes, and the pellet resolubilized in water containing 25 mM DTT, 2% 2-mercaptoethanol, and 2% SDS.
Preparation of purified rMOMP was performed as follows. The full-length native C. pneumoniae MOMP gene was expressed in the pET-32/a (+) E. coli expression system using a polyhistidine tag (Novagen, Madison, Wis.). Briefly the MOMP was amplified under the same PCR conditions with a NcoI extension on the forward primer and a NotI extension on the reverse primer. The 5′ to 3′ sequence of the forward primer was AGCTTACCATGGTGAATGAAAAAACTCTTAAAGTCGGCG (SEQ ID NO: 9) and the reverse primer was ATATGCGGCCGCTCATTAGAATCTGAACTGACCAGATACG (SEQ ID NO: 10). The product was cut with NotI and NcoI and ligated into the multiple cloning site in a previously linearized pET vector. E. coli was transformed and selectively grown, lysed with a French press, and the protein extract was run over a Ni-chelate column and eluted with […]. […]
NO is rapidly oxidized to nitrite in culture medium. […] After a 10 minute incubation at room temperature, the absorbance was read at 550 nm. Nitrite concentrations were calculated from a sodium nitrite standard curve.

For another data set, the system named is iNOS (NOS2) gene. Nature of the data set: RT-PCR for iNOS (NOS2) gene products in splenic macrophages. It counts as cell-based, mouse. Particulars: β-IFN alone; compared with GAPDH mRNA (FIG. 12A). The procedure:
as §1
Mouse splenic macrophages were homogenized in TRI reagent (Molecular Research Center, Cincinnati, Ohio), and total RNA was extracted according to the manufacturer's protocol. […]

The next data set concerns IL-12/p40. Nature of the data set: Sandwich ELISA for IL-12/p40 in macrophage culture supernatants. It counts as cell-based, mouse. The procedure: as §1
IL-12/p40 in culture supernatants was quantitated using sandwich ELISA methodology. Antibody C17.15 was coated onto ELISA plates at 2 μg/ml in 100 μl of carbonate buffer at pH 9.3. After overnight incubation at 4° C., excess antibody was washed off, and the plates were blocked by addition of PBS containing 3% BSA. Samples and standards were plated in triplicate and incubated overnight at 4° C. […] The absorbance was read at 405 nm and sample concentrations of IL-12/p40 were calculated from a rIL-12/p40 standard curve.
(ELISA stands for enzyme-linked immunosorbent assay.)

Turning to `CC[C@H]1OC(=O)[C@H](C)[C@@H](O[C@H]2C[C@@](C)(OC)[C@@H](O)[C@H](C)O2)[C@H](C)[C@@H](O[C@@H]2O[C@H](C)C[C@H](N(C)C)[C@H]2O)[C@](C)(O)C[C@@H](C)CN(C)[C@H](C)[C@@H](O)[C@]1(C)O` [azithromycin], in data set [1], the “PCR Signal Post-antibiotics” value is given as “Absent”.
Take `Cc1ncc([N+](=O)[O-])n1CCO` [metronidazole, Metronidazole]: the side effects result in the data set on MS patients [2] was “side effects”.
On to `CO[C@H]1/C=C/O[C@@]2(C)Oc3c(C)c(O)c4c(O)c(c(/C=N/N5CCN(C)CC5)c(O)c4c3C2=O)NC(=O)/C(C)=C\C=C\[C@H](C)[C@H](O)[C@@H](C)[C@@H](O)[C@@H](C)[C@H](OC(C)=O)[C@@H]1C` [rifampin], for which the side effects result in the data set on MS patients [3] is “gastrointestinal side effects”.

B1: β-IFN: Murine β-IFN obtained commercially (Bio-Source International); type-1 interferon (protein, UniProt P01575 22-182, looked up)
Interferon beta: INYKQLQLQERTNIRKCQELLEQLNGKINLTYRADFKIPMEMTEKMQKSYTAFAIQEMLQNVFLVFRNNFSSTGWNETIVVRLLDELHQQTVFLKTVLEEKQEERLTWEMSSTALHLKSYYWRVQRYLKLMKYNSYAWMVVRAEIFRNFLIIRRLTRNFQN
B1 came in with a nitrite levels with iNOS (10 U of β-IFN added to EB antigen-treated macrophages, 48 hours (FIG. 10)) of 27.3 ± 0.4 µM. In the data set with iNOS (10 U of β-IFN, macrophages cultured with LPS), the “increase in NO” value is recorded as 35%. Further, the “increase in the nitrite level” value with iNOS (10 U of β-IFN, macrophages incubated with 2 μg/ml of rMOMP) stood at 47%. In the data set with iNOS (prior addition of 1000 U of β-IFN to EB antigen-treated cultures, 48 hours (FIG. 9)), the “nitrite levels in supernatants” value was found to be 19.6 µM. The “nitrite levels in macrophage culture supernatants” value in the data set with iNOS (β-IFN alone, no antigen) is “did not increase nitrite levels”. Further, in the data set on iNOS (NOS2) gene, the “RT-PCR signals for NOS2 gene” value is given as “increased RT-PCR signals for NOS2 gene”. For the same molecule, the “suppression of induction of IL12/p40” value with IL-12/p40 (10 U of β-IFN, EB antigens) is given as 78%. Also, in the data set on IL-12/p40 (macrophages pretreated with β-IFN, then EB antigens for 48 hours (FIG. 14)), the IL-12/p40 levels was determined as 1.5 ± 0.09 ng/mL.
